This passage reports IC50, inhibition of HIV Env-mediated cell fusion (vaccinia virus-based reporter gene assay) results from patent publication US20060281673A1, “Novel peptide inhibitor of hiv fusion that disrupts the internal trimeric coiled-coil of gp41” (priority 2003, published 2006).

The target of this test is pre-hairpin intermediate of gp41 (HIV-1 Env on effector cells) (HIV-1) (UniProt P03377). Put plainly: cell-based or functional assay.

In turn, N36 peptide registered an IC50, inhibition of HIV Env-mediated cell fusion (vaccinia virus-based reporter gene assay) of 16 µM.
